{
  "source": "paper PMC6294498",
  "about": "“The structural basis of CstF-77 modulation of cleavage and polyadenylation through stimulation of CstF-64 activity”",
  "key": {"CstF-64 RRM": {"target": "T1, CstF-64 RRM (Homo sapiens, UniProt P33240 1-107)", "T1 sequence": "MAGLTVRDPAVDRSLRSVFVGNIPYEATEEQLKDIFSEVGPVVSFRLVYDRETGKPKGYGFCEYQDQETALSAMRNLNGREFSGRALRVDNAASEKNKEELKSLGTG", "assay": "NMR (1H-15N HSQC titration); 10 mM phosphate pH 6.0, 2 mM TCEP, 30 C; 15N-labeled protein titrated with unlabeled RNA", "settings": "protein: recombinant; tags: His6-TEV, removed by TEV; label: none; single strand"}, "[1]": {"target": "T2, CstF-64 RRM-Hinge;CstF-77 MT (MT-CTD lacking last 30 aa) (Homo sapiens;Homo sapiens, UniProt P33240;Q12996 1-195;607-687, |del688-717)", "T2 sequence 1": "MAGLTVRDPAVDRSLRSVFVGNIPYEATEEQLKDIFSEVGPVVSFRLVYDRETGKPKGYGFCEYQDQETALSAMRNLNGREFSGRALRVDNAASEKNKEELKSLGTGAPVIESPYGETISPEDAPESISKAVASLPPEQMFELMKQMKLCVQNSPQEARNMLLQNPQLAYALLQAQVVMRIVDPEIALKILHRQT", "T2 sequence 2": "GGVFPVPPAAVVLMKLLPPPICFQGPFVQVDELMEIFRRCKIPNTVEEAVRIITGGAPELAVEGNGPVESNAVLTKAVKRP", "assay": "NMR (1H-15N HSQC titration); 10 mM phosphate pH 6.0, 2 mM TCEP, 30 C; 15N-labeled protein titrated with unlabeled RNA", "settings": "protein: recombinant;recombinant, tags: His6-TEV, removed by TEV;MBP-TEV, copies: 1;1, label: none, single strand"}, "[2]": {"target": "T3, CstF-64 RRM-Hinge;CstF-77 MT-CTD (Homo sapiens;Homo sapiens, UniProt P33240;Q12996 1-195;607-717, |)", "T3 sequence 1": "T2 sequence 1", "T3 sequence 2": "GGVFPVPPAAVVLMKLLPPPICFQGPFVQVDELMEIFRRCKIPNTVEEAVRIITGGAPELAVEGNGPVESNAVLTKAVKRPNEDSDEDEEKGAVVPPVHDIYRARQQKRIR", "assay": "NMR (1H-15N HSQC titration); smaller CSPs; last 30 aa of CstF-77 show no significant CSP; 10 mM phosphate pH 6.0, 2 mM TCEP, 30 C; 15N-labeled protein titrated with unlabeled RNA", "settings": "protein: recombinant;recombinant, tags: His6-TEV, removed by TEV;MBP-TEV, copies: 1;1, label: none, single strand"}},
  "data": [
    {"binder": "AUUUUAUGUUUCAGGU (ssRNA)", "note": "[SVL RNA]", "values": [
      {"measurement": "Kd", "setting": "CstF-64 RRM", "value": "0.7 ± 0.4", "unit": "µM"},
      {"measurement": "Kd", "setting": "[1]", "value": "3.5 ± 1", "unit": "µM"},
      {"measurement": "Kd", "setting": "[2]", "value": "3.3 ± 2.3", "unit": "µM"}
    ]}
  ]
}
